We go through twelve substances from PMC3677933, “Identification of Class I HLA T Cell Control Epitopes for West Nile Virus” (PLoS ONE, 2013).

Ends that are not written are not given here.

Test [1] has as its target HLA-A*11:01 (fluorescence polarisation peptide-binding assay). Kind of test: fluorescence polarisation; competitive binding assay of synthetic peptide with HLA-A*11:01 (Pure Protein L.L.C. method, ref. 45); IC50 <5,000 nM categorised as high affinity. A general note: In fluorescence polarisation assays a small probe gives low polarisation when free and higher when bound to something large.

A further test has as its target T1, HLA-A*11:01 (Homo sapiens, UniProt P04439, A114D/D185E/E176A/F33Y/L180Q/S129P/T187R).
T1 construct: purchased Pure Protein L.L.C
Briefly: Fluorescence polarization competitive peptide-binding assay. As to the method: Figure 1 Direct epitope discovery of WNV epitope GTL9. (A) RP-HPLC profile of HLA-A*11:01 peptides from uninfected (blue) and WNV-infected (red) cells. (B) MS ion spectra of HPLC fraction 50 from uninfected (black) and infected (red) cells. MS data were recorded for 300 scans. (C) Overlay of the MS/MS fragmentation pattern of ion 466.7 in the infected HPLC fraction 50 (identified as the GTL9 peptide; red) with the MS/MS fragmentation pattern for the GTL9 synthetic peptide (black). (D) Florescence polarization competitive binding assay with the GTL9 synthetic peptide and HLA-A*11:01.
These six WNV peptides fit the reported A*11:01-binding motif. […] The fluorescence polarization assay used to assess A*11:01 binding categorizes peptides with IC50 values <5,000 nM as high affinity. In summary, six WNV ligands were discovered by direct elution from A*11:01, these ligands were sequenced by tandem MS, their sequence was confirmed with synthetic ligands, they bound well to A*11:01, they were of traditional length, and these ligands were consistent with the previously reported A*11:01 motif.
MS ion maps were generated for HPLC fractions containing peptides. Fractions were ionized by using nanoelectrospray capillaries (Proxeon) into a QSTAR elite (Applied Biosystems) electrospray quadrupole time-of-flight mass spectrometer. Peptide sequences were determined manually by using the MASCOT software package (Matrix Science). Peptide binding to HLA-A*11:01 was determined using the florescence polarization method (Pure Protein L.L.C.).

Regarding “AII11 synthetic peptide (WNV NS5 2559-2569)”, the half-maximal inhibitory concentration (IC50) in test [1] was found to be 11.2 µM. For AIIEVDRSAAK [AII11], the half-inhibitory concentration (IC50) at HLA-A*11:01 was 11.2 µM.

“AVV9 synthetic peptide (WNV NS4B 2458-2466)” yielded a half-maximal inhibitory concentration (IC50) in test [1] of 2.25 µM.

As to AVVVNPSVK [AVV9], the half-inhibitory concentration (IC50) on HLA-A*11:01 was found to be 2.25 µM. In test [1], “GTL9 synthetic peptide (WNV capsid 89-97)” showed a concentration for half-maximal inhibition (IC50) of 1.13 µM. In turn, GTLTSAINR [GTL9] came in with an IC50 on HLA-A*11:01 of 1.13 µM. In test [1], “KNM9 synthetic peptide (WNV NS4B 2519-2527)” yielded a half-inhibitory concentration (IC50) of 24.3 µM. Turning to KNMEKPGLK [KNM9], the half-inhibitory concentration (IC50) on HLA-A*11:01 turned out to be 24.3 µM.

In test [1], “KSY9 synthetic peptide (WNV NS3 1894-1902)” showed an IC50 of 7.88 µM. On HLA-A*11:01, KSYETEYPK [KSY9] came in with an IC50 of 7.89 µM.

Consider “RVL9 synthetic peptide (WNV capsid 23-31)”, for which the IC50 in test [1] turned out to be 0.334 µM.

On to RVLSLIGLK [RVL9], for which the half-maximal inhibitory concentration (IC50) on HLA-A*11:01 came out at 0.334 µM.

One may read the IC50 as the point on the concentration scale where inhibition reaches its midpoint. Lower therefore signals greater potency in that assay.
